Results reported in patent publication US20060063208A1 (GENERAL HOSPITAL, published 2006).

Biological target: T1, DRAGON-Fc fusion protein (DRAGON without its GPI anchor fused to the Fc portion of human IgG) (mouse; human, UniProt Q7TQ33 49-415, limits assumed)
T1 construct: Purified from stably transfected HEK293 cells; also called soluble DRAGON; not shown: Fc portion of the human IgG (vector pIgplus, R&D Systems)
T1 sequence: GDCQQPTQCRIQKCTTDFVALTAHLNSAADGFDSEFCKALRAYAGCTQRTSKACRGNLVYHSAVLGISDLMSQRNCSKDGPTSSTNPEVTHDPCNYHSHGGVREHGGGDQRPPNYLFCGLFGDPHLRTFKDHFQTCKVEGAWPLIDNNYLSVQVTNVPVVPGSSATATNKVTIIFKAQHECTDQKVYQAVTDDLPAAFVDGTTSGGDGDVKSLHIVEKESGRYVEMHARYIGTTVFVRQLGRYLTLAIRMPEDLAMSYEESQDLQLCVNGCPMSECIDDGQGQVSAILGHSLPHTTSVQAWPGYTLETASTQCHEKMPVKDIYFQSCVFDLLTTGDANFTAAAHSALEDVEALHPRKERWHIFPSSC
Assay: DRAGON-Fc with [125I]-BMP2 and increasing unlabeled BMP2, capture on protein A plates

Kd: 1.5 nM
B1: BMP-2 (ligand, human, UniProt P12643 283-396, looked up)
chain: QAKHKQRKRLKSSCKRHPLYVDFSDVGWNDWIVAPPGYHAFYCHGECPFPLADHLNSTNHAIVQTLVNSVNSKIPKACCVPTELSAISMLYLDENEKVVLKNYQDMVVEGCGCR
modifications: iodinated with 125I where used as tracer
